Patent publication US20160235855A1, “STABLE AQUEOUS PARENTERAL PHARMACEUTICAL COMPOSITIONS OF INSULINOTROPIC PEPTIDES” (SHANGHAI BENEMAE PHARMACEUTICAL CORPORATION, priority 2013, published 2016)

Experiment: HPLC analysis of GLP-1 on C18 column (chemical stability)
Format: physicochemical
Description: An investigation method for chemical stability: a test sample was taken, and analyzed on a C18 column (3.5 μm, 300 Å, φ 4.6×50 mm). An analytical method: mobile phase A was 0.1% trifluoroacetic acid, B was the A phase with 80% acetonitrile added therein, the detection wavelength was 280 nm, 60% A and 40% B were balanced for 3 min, and the sample amount was 2 to 5 μL. Elution was performed with linear gradient for 8 min with 40% to 53% of the B phase and 60% to 47% of the A phase. Peak area was calculated using the normalization method. A standard sample was determined with the same method. The peptide concentration in the sample was calculated by comparison with the standard sample, and compared with the determination result at day 0, to calculate the retention of the peptide content in the sample. A higher retention of the peptide content indicated better chemical stability.
The HPLC detection method was performed according to Example 1.
The formulation method and HPLC detection method of the pharmaceutical compositions were performed according to Example 5.

Glucagon-like peptide 1 [GLP-1]
Results of HPLC analysis, retention of the peptide content (pH 3.0, NaCl 0 mg/mL, 35° C., 8 days): 95.46% | Results of HPLC analysis, retention of the peptide content (pH 3.0, NaCl 0 mg/mL, 45° C., 8 days): 87.19% | Results of HPLC analysis, retention of the peptide content (pH 3.0, NaCl 1.17 mg/mL, 35° C., 8 days): 93.69% | Results of HPLC analysis, retention of the peptide content (pH 3.0, NaCl 1.17 mg/mL, 45° C., 8 days): 87.93% | Results of HPLC analysis, retention of the peptide content (pH 3.0, NaCl 8.77 mg/mL, 35° C., 8 days): 95.03% | Results of HPLC analysis, retention of the peptide content (pH 3.0, NaCl 8.77 mg/mL, 45° C., 8 days): 87.86% | Results of HPLC analysis, retention of the peptide content (pH 3.0, NaCl 29.22 mg/mL, 35° C., 8 days): 96.42% | Results of HPLC analysis, retention of the peptide content (pH 3.0, NaCl 29.22 mg/mL, 45° C., 8 days): 91.16% | Results of HPLC analysis, retention of the peptide content (pH 3.5, NaCl 0 mg/mL, 35° C., 8 days): 94.73% | Results of HPLC analysis, retention of the peptide content (pH 3.5, NaCl 0 mg/mL, 45° C., 8 days): 88.66% | Results of HPLC analysis, retention of the peptide content (pH 3.5, NaCl 1.17 mg/mL, 35° C., 8 days): 96.92% | Results of HPLC analysis, retention of the peptide content (pH 3.5, NaCl 1.17 mg/mL, 45° C., 8 days): 92.54% | Results of HPLC analysis, retention of the peptide content (pH 3.5, NaCl 8.77 mg/mL, 35° C., 8 days): 98.06% | Results of HPLC analysis, retention of the peptide content (pH 3.5, NaCl 8.77 mg/mL, 45° C., 8 days): 92.90% | Results of HPLC analysis, retention of the peptide content (pH 3.6, NaCl below 20 mmol/L, 25° C., 30 days): 93.04% | Results of HPLC analysis, retention of the peptide content (pH 3.6, NaCl below 20 mmol/L, 35° C., 30 days): 86.25% | Results of HPLC analysis, retention of the peptide content (pH 3.7, NaCl below 20 mmol/L, 25° C., 30 days): 95.15% | Results of HPLC analysis, retention of the peptide content (pH 3.7, NaCl below 20 mmol/L, 35° C., 30 days): 86.11% | Results of HPLC analysis, retention of the peptide content (pH 3.8, NaCl below 20 mmol/L, 25° C., 30 days): 97.10% | Results of HPLC analysis, retention of the peptide content (pH 3.8, NaCl below 20 mmol/L, 35° C., 30 days): 89.48% | Results of HPLC analysis, retention of the peptide content (pH 3.9, NaCl below 20 mmol/L, 25° C., 30 days): 98.08% | Results of HPLC analysis, retention of the peptide content (pH 3.9, NaCl below 20 mmol/L, 35° C., 30 days): 90.36% | Results of HPLC analysis, retention of the peptide content (pH 4.0, NaCl 0 mg/mL, 35° C., 8 days): 96.07% | Results of HPLC analysis, retention of the peptide content (pH 4.0, NaCl 0 mg/mL, 45° C., 8 days): 92.77% | Results of HPLC analysis, retention of the peptide content (pH 4.0, NaCl 1.17 mg/mL, 35° C., 8 days): 97.43% | Results of HPLC analysis, retention of the peptide content (pH 4.0, NaCl 1.17 mg/mL, 45° C., 8 days): 93.76% | Results of HPLC analysis, retention of the peptide content (pH 4.0, NaCl 8.77 mg/mL, 35° C., 8 days): 98.73% | Results of HPLC analysis, retention of the peptide content (pH 4.0, NaCl 8.77 mg/mL, 45° C., 8 days): Turbid | Results of HPLC analysis, retention of the peptide content (pH 4.0, NaCl below 20 mmol/L, 25° C., 30 days): 97.85% | Results of HPLC analysis, retention of the peptide content (pH 4.0, NaCl below 20 mmol/L, 35° C., 30 days): 91.80% | Results of HPLC analysis, retention of the peptide content (pH 4.1, NaCl below 20 mmol/L, 25° C., 30 days): 98.90% | Results of HPLC analysis, retention of the peptide content (pH 4.1, NaCl below 20 mmol/L, 35° C., 30 days): 91.35% | Results of HPLC analysis, retention of the peptide content (pH 4.2, NaCl below 20 mmol/L, 25° C., 30 days): 98.24% | Results of HPLC analysis, retention of the peptide content (pH 4.2, NaCl below 20 mmol/L, 35° C., 30 days): 93.96% | Results of HPLC analysis, retention of the peptide content (pH 4.5, NaCl 0 mg/mL, 35° C., 8 days): 97.23% | Results of HPLC analysis, retention of the peptide content (pH 4.5, NaCl 0 mg/mL, 45° C., 8 days): 92.45% | Results of HPLC analysis, retention of the peptide content (pH 4.5, NaCl 1.17 mg/mL, 35° C., 8 days): 95.29% | Results of HPLC analysis, retention of the peptide content (pH 4.5, NaCl 1.17 mg/mL, 45° C., 8 days): Turbid | Results of HPLC analysis, retention of the peptide content (pH 4.5, NaCl 8.77 mg/mL, 35° C., 8 days): Turbid | Results of HPLC analysis, retention of the peptide content (pH 4.5, NaCl 8.77 mg/mL, 45° C., 8 days): Turbid | Results of HPLC analysis, retention of the peptide content (pH 7.0, NaCl 0 mg/mL, 35° C., 8 days): 94.30% | Results of HPLC analysis, retention of the peptide content (pH 7.0, NaCl 0 mg/mL, 45° C., 8 days): 88.83% | Results of HPLC analysis, retention of the peptide content (pH 7.0, NaCl 1.17 mg/mL, 35° C., 8 days): 93.35% | Results of HPLC analysis, retention of the peptide content (pH 7.0, NaCl 1.17 mg/mL, 45° C., 8 days): 90.43% | Results of HPLC analysis, retention of the peptide content (pH 7.0, NaCl 8.77 mg/mL, 35° C., 8 days): 94.34% | Results of HPLC analysis, retention of the peptide content (pH 7.0, NaCl 8.77 mg/mL, 45° C., 8 days): 92.79% | Results of HPLC analysis, retention of the peptide content (pH 7.0, NaCl 29.22 mg/mL, 35° C., 8 days): 95.83% | Results of HPLC analysis, retention of the peptide content (pH 7.0, NaCl 29.22 mg/mL, 45° C., 8 days): 95.37% | chemical stability (pH 7.0 to 7.5): poor | Results of HPLC analysis, retention of the peptide content (pH 7.5, NaCl 0 mg/mL, 35° C., 8 days): 90.89% | Results of HPLC analysis, retention of the peptide content (pH 7.5, NaCl 1.17 mg/mL, 35° C., 8 days): 91.88% | Results of HPLC analysis, retention of the peptide content (pH 7.5, NaCl 1.17 mg/mL, 45° C., 8 days): 85.88% | Results of HPLC analysis, retention of the peptide content (pH 7.5, NaCl 8.77 mg/mL, 35° C., 8 days): 92.15% | Results of HPLC analysis, retention of the peptide content (pH 7.5, NaCl 8.77 mg/mL, 45° C., 8 days): 87.48% | Results of HPLC analysis, retention of the peptide content (pH 7.5, NaCl 29.22 mg/mL, 35° C., 8 days): 93.74% | Results of HPLC analysis, retention of the peptide content (pH 7.5, NaCl 29.22 mg/mL, 45° C., 8 days): 88.04% | chemical instability (pH value lower than about 3.5): acid hydrolysis
